Target: T1, dipeptidyl peptidase 4 (DPP-4) (UniProt P27487 39-766, limits assumed)
T1 construct: also called adenosine deaminase complexing protein 2; CD26
Test: inhibition of DPP-4 cleavage of the chromogenic substrate Gly-Pro-pNA

T1 sequence (P27487 39-766 limits assumed): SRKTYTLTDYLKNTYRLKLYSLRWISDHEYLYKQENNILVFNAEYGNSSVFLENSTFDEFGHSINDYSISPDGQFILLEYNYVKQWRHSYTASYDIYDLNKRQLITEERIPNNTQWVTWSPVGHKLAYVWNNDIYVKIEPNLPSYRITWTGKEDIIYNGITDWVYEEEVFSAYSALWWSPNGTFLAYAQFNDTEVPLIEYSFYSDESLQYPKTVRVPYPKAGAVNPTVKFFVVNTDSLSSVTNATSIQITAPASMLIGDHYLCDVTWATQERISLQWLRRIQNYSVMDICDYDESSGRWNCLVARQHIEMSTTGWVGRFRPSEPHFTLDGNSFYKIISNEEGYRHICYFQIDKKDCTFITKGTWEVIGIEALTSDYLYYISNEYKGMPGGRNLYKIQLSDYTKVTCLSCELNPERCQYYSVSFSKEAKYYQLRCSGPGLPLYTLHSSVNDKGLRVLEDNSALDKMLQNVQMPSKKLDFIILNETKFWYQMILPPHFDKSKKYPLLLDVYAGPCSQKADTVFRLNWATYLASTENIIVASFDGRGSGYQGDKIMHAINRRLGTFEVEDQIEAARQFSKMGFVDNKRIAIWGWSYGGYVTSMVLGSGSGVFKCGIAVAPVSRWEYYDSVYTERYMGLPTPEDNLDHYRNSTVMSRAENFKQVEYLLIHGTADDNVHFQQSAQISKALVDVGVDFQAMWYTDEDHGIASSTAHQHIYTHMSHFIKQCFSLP

B1: thio GLP-1 (GLP-1 7-36 with a thioamide at the Ala8-Glu9 scissile bond) (peptide)
peptide: HXEGTFTSDVSSYLEGQAAKEFIAWLVKGR
modifications: thioamide (C=S in place of C=O) at Ala8 (second residue of the peptide), i.e. the bond between Ala8 and Glu9; printed HA*EGTF...
notes: C-terminal amide is called optional; also called GLP-1-A^s8; thioamide-modified GLP-1
binding result: no binding (tested: 100 µM)

Source: patent US20240239860A1 (University of Pennsylvania, published 2024)
